Measurements published in patent US20040170969A1 (published 2004).

T1: Flag-epitope-tagged murine Ras-GRF2 (murine, UniProt P70392 1-1189, limits assumed)
T1 construct: Bait; expressed stably (Clone 13, Clone 21) or transiently in human 293 cells; also called Flag-GRF2; FLAG-GRF2
T1 sequence (looked up): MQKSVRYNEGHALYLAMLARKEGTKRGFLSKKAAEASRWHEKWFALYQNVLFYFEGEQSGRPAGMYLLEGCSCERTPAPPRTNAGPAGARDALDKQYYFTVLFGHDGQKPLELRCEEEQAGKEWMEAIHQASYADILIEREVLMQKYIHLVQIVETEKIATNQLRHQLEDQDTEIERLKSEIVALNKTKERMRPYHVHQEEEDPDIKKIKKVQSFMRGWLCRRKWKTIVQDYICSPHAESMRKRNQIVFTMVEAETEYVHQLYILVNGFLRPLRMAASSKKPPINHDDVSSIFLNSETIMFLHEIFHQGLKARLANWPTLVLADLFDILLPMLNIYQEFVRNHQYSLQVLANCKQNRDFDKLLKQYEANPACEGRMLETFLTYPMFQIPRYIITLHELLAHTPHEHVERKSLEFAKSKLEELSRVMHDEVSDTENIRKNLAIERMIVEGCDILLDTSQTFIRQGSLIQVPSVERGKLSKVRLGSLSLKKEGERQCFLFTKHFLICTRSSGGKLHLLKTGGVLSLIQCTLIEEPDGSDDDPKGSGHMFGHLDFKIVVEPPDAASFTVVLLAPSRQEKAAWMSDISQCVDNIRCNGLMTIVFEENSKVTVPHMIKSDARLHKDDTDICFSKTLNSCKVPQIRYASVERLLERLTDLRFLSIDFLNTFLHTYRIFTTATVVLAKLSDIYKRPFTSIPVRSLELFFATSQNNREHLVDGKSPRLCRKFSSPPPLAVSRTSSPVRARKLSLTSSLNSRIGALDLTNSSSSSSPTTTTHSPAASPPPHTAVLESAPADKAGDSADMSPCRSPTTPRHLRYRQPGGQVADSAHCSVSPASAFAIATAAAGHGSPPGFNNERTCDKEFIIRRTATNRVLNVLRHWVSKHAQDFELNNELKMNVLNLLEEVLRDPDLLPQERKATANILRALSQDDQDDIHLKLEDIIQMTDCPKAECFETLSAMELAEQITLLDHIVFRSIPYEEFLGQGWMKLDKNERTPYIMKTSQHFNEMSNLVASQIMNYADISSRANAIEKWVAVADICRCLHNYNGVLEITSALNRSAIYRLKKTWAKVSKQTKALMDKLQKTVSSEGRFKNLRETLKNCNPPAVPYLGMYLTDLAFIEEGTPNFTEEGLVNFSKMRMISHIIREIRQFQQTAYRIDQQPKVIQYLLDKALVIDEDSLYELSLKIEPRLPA

B1: DKFZp434D174.1 (GI 7512558) (other, UniProt P57678 1-1058, looked up)
chain: MDLGPLNICEEMTILHGGFLLAEQLFHPKALAELTKSDWERVGRPIVEALREISSAAAHSQPFAWKKKALIIIWAKVLQPHPVTPSDTETRWQEDLFFSVGNMIPTINHTILFELLKSLEASGLFIQLLMALPTTICHAELERFLEHVTVDTSAEDVAFFLDVWWEVMKHKGHPQDPLLSQFSAMAHKYLPALDEFPHPPKRLRSDPDACPTMPLLAMLLRGLTQIQSRILGPGRKCCALANLADMLTVFALTEDDPQEVSATVYLDKLATVISVWNSDTQNPYHQQALAEKVKEAERDVSLTSLAKLPSETIFVGCEFLHHLLREWGEELQAVLRSSQGTSYDSYRLCDSLTSFSQNATLYLNRTSLSKEDRQVVSELAECVRDFLRKTSTVLKNRALEDITASIAMAVIQQKMDRHMEVCYIFASEKKWAFSDEWVACLGSNRALFRQPDLVLRLLETVIDVSTADRAIPESQIRQVIHLILECYADLSLPGKNKVLAGILRSWGRKGLSEKLLAYVEGFQEDLNTTFNQLTQSASEQGLAKAVASVARLVIVHPEVTVKKMCSLAVVNLGTHKFLAQILTAFPALRFVEEQGPNSSATFMVSCLKETVWMKFSTPKEEKQFLELLNCLMSPVKPQGIPVAALLEPDEVLKEFVLPFLRLDVEEVDLSLRIFIQTLEANACREEYWLQTCSPFPLLFSLCQLLDRFSKYWQLPKEKRCLSLDRKDLAIHILELLCEIVSANAETFSPDVWIKSLSWLHRKLEQLDWTVGLRLKSFFEGHFKCEVPATLFEICKLSEDEWTSQAHPGYGAGTGLLAWMECCCVSSGISERMLSLLVVDVGNPEEVRLFSKGFLVALVQVMPWCSPQEWQRLHQLTRRLLEKQLLHVPYSLEYIQFVPLLNLKPFAQELQLSVLFLRTFQFLCSHSCRDWLPLEGWNHVVKLLCGSLTRLLDSVRAIQAAGPWVQGPEQDLTQEALFVYTQVFCHALHIMAMLHPEVCEPLYVLALETLTCYETLSKTNPSVSSLLQRAHEQRFLKSIAEGIGPEERRQTLLQKMSSF
notes: also called gemin4; gemin 4

Experiments:
[1] = molecular target: B1; experiment: anti-FLAG co-IP, MS
[2] = molecular target: T1, Flag-epitope-tagged murine Ras-GRF2; experiment: anti-FLAG co-IP, MS

binding result [1] | binding result [2] | Binder
no binding | – | FLAG-PP2C (enzyme, human, UniProt O75688 1-479, looked up, not shown: small tags and cut ends, also called PP2C bait) MGAFLDKPKTEKHNAHGAGNGLRYGLSSMQGWRVEMEDAHTAVVGIPHGLEDWSFFAVYDGHAGSRVANYCSTHLLEHITTNEDFRAAGKSGSALELSVENVKNGIRTGFLKIDEYMRNFSDLRNGMDRSGSTAVGVMISPKHIYFINCGDSRAVLYRNGQVCFSTQDHKPCNPREKERIQNAGGSVMIQRVNGSLAVSRALGDYDYKCVDGKGPTEQLVSPEPEVYEILRAEEDEFIILACDGIWDVMSNEELCEYVKSRLEVSDDLENVCNWVVDTCLHKGSRDNMSIVLVCFSNAPKVSDEAVKKDSELDKHLESRVEEIMEKSGEEGMPDLAHVMRILSAENIPNLPPGGGLAGKRNVIEAVYSRLNPHRESDGASDEAEESGSQGKLVEALRQMRINHRGNYRQLLEEMLTSYRLAKVEGEESPAEPAATATSSNSDAGNPVTMQESHTESESGLAELDSSNEDAGTKMSGEKI
no binding | – | FLAG-Ndr (K118A) mutant fusion protein (enzyme, not shown: small tags and cut ends, also called K118A Ndr) not shown
– | no binding | protein 4.1 isoB (GI 182074) (other, UniProt P11171-3 1-641, looked up, also called Erythroid protein 4.1 isoform B) MHCKVSLLDDTVYECVVEKHAKGQDLLKRVCEHLNLLEEDYFGLAIWDNATSKTWLDSAKEIKKQVRGVPWNFTFNVKFYPPDPAQLTEDITRYYLCLQLRQDIVAGRLPCSFATLALLGSYTIQSELGDYDPELHGVDYVSDFKLAPNQTKELEEKVMELHKSYRSMTPAQADLEFLENAKKLSMYGVDLHKAKDLEGVDIILGVCSSGLLVYKDKLRINRFPWPKVLKISYKRSSFFIKIRPGEQEQYESTIGFKLPSYRAAKKLWKVCVEHHTFFRLTSTDTIPKSKFLALGSKFRYSGRTQAQTRQASALIDRPAPHFERTASKRASRSLDGAAAVDSADRSPRPTSAPAITQGQVAEGGVLDASAKKTVVPKAQKETVKAEVKKEDEPPEQAEPEPTEAWKVEKTHIEVTVPTSNGDQTQKKRERLDGENIYIRHSNLMLEDLDKSQEEIKKHHASISELKKNFMESVPEPRPSEWDKRLSTHSPFRTLNINGQIPTGEGPPLVKTQTVTISDNANAVKSEIPTKDVPIVHTETKTITYEAAQTDDNSGDLDPGVLLTAQTITSETPSSTTTTQITKTVKGGISETRIEKRIVITGDADIDHDQVLVQAIKEAKEQHPDMSVTKVVVHQETEIADE
– | no binding | B1
no binding | – | FLAG-Ndr (cells treated with okadaic acid) (enzyme, not shown: small tags and cut ends, also called Ndr bait; active Ndr) not shown
